In test [1] the target is Claudin 18.1 on CHO cells (CHO+ Claudin 18.1) (UniProt P56856). Briefly: flow cytometry, unpurified culture supernatant on CHO_18.1 cells, anti-c-Myc 9E10 + Avidin-PE; parental CHO in the same table: 1.25 %. For orientation: In flow cytometry, cells or beads pass a laser one at a time.
The target is the same in test [2]. Kind of test: flow cytometry, unpurified culture supernatant on CHO_18.1 cells, anti-c-Myc 9E10 + Avidin-PE; parental CHO in the same table: 1.71 %.

Sequence of Claudin 18.1 on CHO cells (CHO+ Claudin 18.1) (P56856 whole entry): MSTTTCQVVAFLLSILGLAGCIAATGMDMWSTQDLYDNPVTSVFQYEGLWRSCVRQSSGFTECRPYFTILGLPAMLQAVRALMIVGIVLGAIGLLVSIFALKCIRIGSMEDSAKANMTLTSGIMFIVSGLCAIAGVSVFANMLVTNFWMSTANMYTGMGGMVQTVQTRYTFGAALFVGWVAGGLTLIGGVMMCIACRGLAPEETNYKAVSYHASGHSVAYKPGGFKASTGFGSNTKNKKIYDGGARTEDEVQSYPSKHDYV

B1: Claudin 18.2-4G1 (VHH)
VHH: QVQLVESGGGVVQTGGSLRLTCEISGAALSSYTMGWFRQAPGKEREFVAAISWGGSITWYADSVKGRFTISRDNAKNTVYLQMNSLKPEDTAVYYCHAEGQFGALSYPKDYWGQGTQVTVSS
Regarding B1, the PE-Positive Cells (%) in test [1] came to 6.79%.

B2: Claudin 18.2-3C2 (VHH)
VHH: QVQLVESGGGLVQPGGSLRLSCAASGFTFSNYAMYWVRQAPGKGPEWVSVISGGGGVISYADSVKGRFTISRDNAKNTMYLQMNSLKPEDTAVYYCNAQSAVWWENDYWGQGTQVTVSS
With B2, in test [2], the PE-Positive Cells (%) was determined as 7.32%.

Values taken from US20240109963A1.
